The results in this text go back to patent publication US20220265715A1 (EUREKA THERAPEUTICS, published 2022).

In the test the target is T1, biotinylated AFP158/HLA-A*02:01 tetramer (human, biotinylated via the BSP peptide linked to the C-terminal end of the HLA-A*02:01 extracellular domain).
T1 construct: also called AFP158 tetramer; not shown: BSP peptide (BirA biotinylation site) at the C-terminus
In words: flow cytometry, AFP158/HLA-A*02:01 tetramer staining of CAR-transduced T cells.

B1: Anti-AFP-CD28z-CAR (other)
chain: QSVLTQPASVSGSPGQSITISCTGTSSDVGGYNYVSWYQQHPGKAPKLMIYDVNNRPSEVSNRFSGSKSGNTASLTISGLQAEDEADYYCSSYTTGSRAVFGGGTKLTVLGSRGGGGSGGGGSGGGGSLEMAEVQLVQSGAEVKKPGESLTISCKASGYSFPNYWITWVRQMSGGGLEWMGRIDPGDSYTTYNPSFQGHVTISIDKSTNTAYLHWNSLKASDTAMYYCARYYVSLVDIWGQGTLVTVSSEQKLISEEDLAAAIEVMYPPPYLDNEKSNGTIIHVKGKHLCPSPLFPGPSKPFWVLVVVGGVLACYSLLVTVAFIIFWVRSKRSRLLHSDYMNMTPRRPGPTRKHYQPYAPPRDFAAYRSRVKFSRSADAPAYQQGQNQLYNELNLGRREEYDVLDKRRGRDPEMGGKPRRKNPQEGLYNELQKDKMAEAYSEIGMKGERRRGKGHDGLYQGLSTATKDTYDALHMQALPPR
notes: Chimeric antigen receptor on transduced primary human T cells: anti-AFP/MHC scFv, myc tag, CD28 TM, CD28 costimulatory domain, CD3zeta; also called αAFP -CD28z CAR
Regarding B1, the binding result was “binds”.

B2: Anti-AFP-CD30z-CAR (other)
chain: QSVLTQPASVSGSPGQSITISCTGTSSDVGGYNYVSWYQQHPGKAPKLMIYDVNNRPSEVSNRFSGSKSGNTASLTISGLQAEDEADYYCSSYTTGSRAVFGGGTKLTVLGSRGGGGSGGGGSGGGGSLEMAEVQLVQSGAEVKKPGESLTISCKASGYSFPNYWITWVRQMSGGGLEWMGRIDPGDSYTTYNPSFQGHVTISIDKSTNTAYLHWNSLKASDTAMYYCARYYVSLVDIWGQGTLVTVSSEQKLISEEDLAAATGAPPLGTQPDCNPTPENGEAPASTSPTQSLLVDSQASKTLPIPTSAPVALSSTGKPVLDAGPVLFWVILVLVVVVGSSAFLLCHRRACRKRIRQKLHLCYPVQTSQPKLELVDSRPRRSSTQLRSGASVTEPVAEERGLMSQPLMETCHSVGAAYLESLPLQDASPAGGPSSPRDLPEPRVSTEHTNNKIEKIYIMKADTVIVGTVKAELPEGRGLAGPAEPELEEELEADHTPHYPEQETEPPLGSCSDVMLSVEEEGKEDPLPTAASGKRVKFSRSADAPAYQQGQNQLYNELNLGRREEYDVLDKRRGRDPEMGGKPRRKNPQEGLYNELQKDKMAEAYSEIGMKGERRRGKGHDGLYQGLSTATKDTYDALHMQALPPR
notes: Chimeric antigen receptor on transduced primary human T cells: anti-AFP/MHC scFv, myc tag, CD30 TM, CD30 costimulatory domain, CD3zeta; also called αAFP -CD30z CAR
Take B2: the binding result was “binds”.
